# Assay results as given in US20210260159A1.
# Molecular target: human CD40 on cells (HEK293 transfected with human CD40; Ramos-Blue B-lymphocytes; human B cells; human monocyte-derived dendritic cells) (human) (UniProt P25942)
# Assay: cell-based or functional assay
# UniProt P25942, sequence (P25942 21-277 limits assumed): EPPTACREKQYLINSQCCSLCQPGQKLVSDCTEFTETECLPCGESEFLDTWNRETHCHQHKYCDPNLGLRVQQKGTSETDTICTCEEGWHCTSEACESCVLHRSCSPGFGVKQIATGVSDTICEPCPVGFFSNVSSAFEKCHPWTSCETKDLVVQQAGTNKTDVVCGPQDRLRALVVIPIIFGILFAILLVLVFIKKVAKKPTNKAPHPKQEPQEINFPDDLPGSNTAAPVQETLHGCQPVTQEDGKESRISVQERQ
substance,measurement,value
human IgG4P isotype control NIP-228 (antibody),"EC50 (nM), NFkB-luciferase reporter, HuCD40 293 HEK NFkB c3 cells",2.27 nM
same,"EC50 (nM), NFkB/AP-1 reporter, Ramos-Blue B-cells",208 nM
